In assay [1] the target is SynGAP[PSD95] condensates (mCherry-SynGAP with PSD95-mGFP) (human | rat) (UniProt P31016).

The source of these data is paper doi:10.1101/2025.04.22.649955.

Chain of UniProt P31016 (P31016 whole entry, looked up): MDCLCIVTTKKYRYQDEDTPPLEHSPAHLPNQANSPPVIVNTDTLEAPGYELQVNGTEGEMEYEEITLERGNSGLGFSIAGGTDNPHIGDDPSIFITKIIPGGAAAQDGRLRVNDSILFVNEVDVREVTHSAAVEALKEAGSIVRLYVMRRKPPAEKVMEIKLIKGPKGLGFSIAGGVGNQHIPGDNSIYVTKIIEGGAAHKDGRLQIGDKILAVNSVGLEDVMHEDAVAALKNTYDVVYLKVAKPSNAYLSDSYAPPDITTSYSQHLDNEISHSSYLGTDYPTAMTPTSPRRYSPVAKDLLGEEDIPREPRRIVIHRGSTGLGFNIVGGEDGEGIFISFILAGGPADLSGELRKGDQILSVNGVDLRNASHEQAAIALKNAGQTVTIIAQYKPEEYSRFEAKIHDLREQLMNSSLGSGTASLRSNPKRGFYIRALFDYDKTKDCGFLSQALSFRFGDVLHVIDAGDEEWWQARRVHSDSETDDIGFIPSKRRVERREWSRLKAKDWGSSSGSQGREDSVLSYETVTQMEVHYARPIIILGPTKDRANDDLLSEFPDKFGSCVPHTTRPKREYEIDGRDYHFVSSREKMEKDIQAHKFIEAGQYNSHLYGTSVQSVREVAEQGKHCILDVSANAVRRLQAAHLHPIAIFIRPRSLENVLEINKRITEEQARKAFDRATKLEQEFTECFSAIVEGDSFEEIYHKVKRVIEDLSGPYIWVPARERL

In the case of GluA1(ΔNTD)-TARP2, in the assay with GluA1(ΔNTD)-TARP2, the percent of molecules as dimers worked out at 45%, the percent of molecules as monomers stood at 41% and the percent of molecules as tetramers was found to be 14%.

In the assay with GluA1-TARP2, GluA1-TARP2 registered a percent of molecules as dimers of 39%, a percent of molecules as monomers of 19%, a percent of molecules as tetramers of 2% and a percent of molecules as trimers of 18%.

As for “Halo7-tagged wild-type Neuroligin1 (from UniProt Q99K10 46-843) (receptor)”, the fold of the fraction of the τ2 dwell-lifetime component against mNlg1 in assay [1] amounted to 2.5 fold.
